Test: yeast display, Sf9 membrane polyspecificity reagent, FACS + sequencing; frameworks hold sequencing errors
In short: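 Polyreactivity labels are assigned by the sorting gate from which each nanobody was recovered. The gates were low and high (top ~1%), set on anti-HA fluorescence for expression and streptavidin fluorescence for reagent binding. Before sorting, galactose-induced (36–48 hours) yeast display cells were stained for 1 hour at 4 °C with 10% biotinylated, detergent-solubilized Sf9 membrane reagent.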

Row | Sequence | polyreactivity (PSR sort gate)
1 | QDQLVESGGGLVQAGGTLRLSCAASGYTFDTYALGWYRQAPGKERELVAAISYTGGSTYYADSVKGRFTISRDNAKNTVYLQMNSLKPEDTAVYYCAADFNGYPGGDLYVGYDYWGLGTQVTVSS | low polyreactivity
2 | QDQLVESGGGLVQAGRSLRLSCAASGRIFYYNAMGWYRQAPGKERELVAAISYTDDSTYADSVKGRFTISRDNAKNTVYLQLNSLKPEDTAVYYCAADAVAYIYGYDYDYWGQGTQVTVSS | low polyreactivity
3 | QDQLVESGGGLVQAGVSLRISCAASGFTFRGNAMGWYRQAPGKERELVAAITSSDDSTYYADSVKGRFTNSRDNAKNTVYLQMNSLKPEDTAVYYCAAVANGYWTYEYWGQGTQVTVSS | low polyreactivity
4 | QDQLVESGGGLVQAGVSLRLSCAASGLTFPQYVMGWYRQAPGKQRELDASISSSGGNTYYADSVKGRFTISRDNAKNTVYLQMISLKPEDTAVYYCAAEYIFHYYDIFDYWGQGTQVTVSS | high polyreactivity
5 | QDQLVESGGGLVQARGRQRLSCAATGSTFYRNALGWYRQAPGKEREFVAAISFRGGGTYADSVKGRFTISRDNAKNTVYLQMNSLKPEDTAVYYFGADHLSYRRRYEYWGQGTQVTVSS | low polyreactivity
6 | QDQLVESGGGLVQARGSLRLSCAASGRIIKTNAMGWYRQAPGKERELVAAISSSGGRTYYADSVKGRFTISRDNAKNTVYLQMNSLKPEDTAVYYCAAPSLVSFGYWGQGTQVTVSS | high polyreactivity
7 | QDQLVESGGGLVQEGGSLRLSCAASGNIFNRYGMGWYRQAPGKEREFVAAISSGGGSTYYADSVKGRFTISRDNAKNTVYLQINRLKPEDTAVYYCAAGYSSLRRVGVYYWRQGTQVTVSS | high polyreactivity
8 | QDQLVESGGGLVQEGGSLRLSCAASGSTFKNYALGWYRQAPGTERELVAASNVSRARTYYADSVKGRFTLSRDNAKNRVYFQMNSLIPEDTAFYYCAAYYSGVGFDYWGQGTHVTVSS | high polyreactivity
9 | QDQLVESGGGLVQEGGSLRLSCAAYGSIYRYAMGWNRPAPGKERELVAAINFNGGRTYYADSVNGRFTISRDNAKNTVYLQMTSLKPEDTAVYYCAARISVYSTLPNDFDYWGQGTQVTVSS | high polyreactivity
10 | QDQLVESGGRIVQAGGSLRLSCASSGRTFYTYAMGWYRKAPGKERELVAAISSSGSTYYADSVKGRFTISRDNAKNTVYLQMNSLKPEDTALYDCNARTSRYRRGGDSWGQGTQVTVSS | high polyreactivity
11 | QDQLVESGGRLVQAGGSLRLSCAASGRIFSSYALGWYRQAPGKERELVAAIRSSGDRTYYADSVKGRFTISRDNAKITVYLQMNILKPEETAVYFCASRTYLYFGRYDYWGQGTQVTVSS | high polyreactivity
12 | QDQLVESGGVLVQAGGSLRLSCAASGFIFNRYAMGWYRQAPWKERELVAANTRTGSTNYADSVKGRFTISRYNAKYTVYLQMSCLKPEDTAVFYCAAVYLSLGRPYYTFEYWGQGTQVTVSS | high polyreactivity
13 | QDQLVESGGVLVQAGGSLRLSCADSGFSFANYVMGWYRQAPGKERELFAAITTPGGSTSYADSVKGRFTISRDNAKTNVYLQMPSLKPEDTAVYFCKKTTYYPSDYDYWGQGTQVTVSS | low polyreactivity
14 | QDQLVESGRGLVQAGGSLRLSCAASGRTFALNVMGWYRQAPGKERELVAAISRSGGSTYFADSVKGRFTISRDNAKNTVYIQMNSLKPEDTAVYSCAAATHYQSYKRRDYWGQGTQVTVSS | high polyreactivity
15 | QDQLVESGVGIVQAGGRLRLSCAASGRTFGRNAMGWYIQAPGKERELVATISRSGGSTNYADSVKGRFTISRDNAKNTVYLQMNSLKPEDTAVYYCAKARPFSYDYWGLGTQVTVSS | high polyreactivity
16 | QDQLVESRGGLVQAGGSLRLRCAASGRIFTRYAMGWYRQAPRKERELVAAITYNGGSTYYADSVKGRFTISRDNAKNTVYLQMNSLKPEDTAVYYCNAVYMSWFGLYAGFDYWGQGTQVTVSS | high polyreactivity
17 | QDQLVESRGGLVQAGGSLRLRCAASGSIFIGYAMGWYRQAPGKQRELVAAISGSGSSTYYADSVKGRFTISRDNAKNNDYLQMNILKPEDTAVYYCAAAPRFRGYDYCGQGTQVTVSS | high polyreactivity
18 | QDQLVESVGGLVQAGASLRLSCAATGRTFTTYAIGLYRPAPGKERELVAAITSGTSTNYADSVKGRFTISRDTAKNTVYVQMNSLKPEDTAVYYCAAPHGRGYEYWGQGTQVTVSS | high polyreactivity
19 | QDQLVESVGGLVQAGGSHRLSCAASGFTLKAYVMGWYRQAPGKERELVAAIRITGGRTYYADSVKGRFTISRDNAKNTVYLQMNSLKPQDTAVYYCNAVKGEPDDYVPFELDYWGQGTQVTVSS | high polyreactivity
20 | QDQLVESVGGLVQAGGSLRLSCAASGGTFGPNAMGWYRQAPGKERELVAAISASGGITYYADSVKGRFTISRDNAKNTVYLQMNSLKPEDTAVYYCAAAITWIYSQAAFKIVQYDYWGQGTQVTVSS | low polyreactivity
21 | QDQLVESVGGLVQAGGSLRLSCAASGSIFVRYAMGWYRQAPGKERELVAAISSDGNTYYADSVKGRFTISRDNAKNTVYLQMNSLKPEDTAVYYCAAKTRSRYYWGQGTQVTVSS | high polyreactivity
22 | QDQPVESGGGLVQAGGSLRLSCDDSGFTFVYYAMGWYRQAPGQERELVAAISTGGSTYYADSVKWRFTISRDNAKNTVYLQMNSLKPEDTAVYYCNAVYTYRWRFNYWGQGTQVTVSS | high polyreactivity

Row | Sequence | polyreactivity (PSR sort gate)
23 | QDQRVDSGRGLVQAGGSLRLSCAASGSIFDFYARGWNRPAPGKERELVATISSAGSTYYAESVKGRFTISRDNAKNTVYLQMNSLKPEDTALYYCARGYIRSYWWYHSDRGDFWGQGTQVTVSS | low polyreactivity
24 | QEHLQESGGGLVQAGGDLRLSSPSSGNIFRDYISGCYRQAPGKEREFAAGIDRGANTNYADSVKGRFTISRDNAKNTVYLQMISLKPVDTAVYYCGVHTAIVPEFIYWGQGTQVTVSS | low polyreactivity
25 | QEQLEESGGGLVQAGGSLRLSCAASGRIFAAYAKGWYRPAPGKEREVVAGITRTGGSTYYADSVKGRFTISRDNAKNTVYLQMNSLKPEDTAVYYCAARWIWRGYDYWGQGTKVTVSS | high polyreactivity
26 | QEQLQEIGGRLEQAGGSLRLSCAASGYITYIGTMGWYRHAPGKEREFVATIVVGSTTNYADSVKGRFTISRDNAKNTVYLQPESGRYRGVLLRGWLLAVGKFTYWGQGTQETVSS | low polyreactivity
27 | QEQLQETGGGLVRAGGSLRLICAASRSNSVEAGMGRSRQAPGEERELVATINDGSITNYAVSVKGRFTTSRDNAKYTVYLLMNSLKPEDTAVYYCAALTRNYQSHQFWGQGTQVTVSR | high polyreactivity
28 | QEQLVESGGGIVKAGGSLRLSCAASGSIFSYYAMGRYRKSPGKEMELVAGITGGGSTDYADSLKGRFTISRDNAKNTVYLQMNSLIPEDPAVYYCAKRYVPWRPYDYWGQGTQVTVSS | low polyreactivity
29 | QEQRVESGGGFVQAGGSLRLSCAASGFICVDYAMRWYRHARGNEREWVAAITYDGGSTYFADSVKARFTISRDNAKNTVNSQMNSLNPEDTALYYWAADYGYSQYILRQVRLEELDYSGQGTQVTVSS | low polyreactivity
30 | QFHLVESGGGLVQAGGSLRLSCAASGITFGYYAMGWYRQAPGKERELVAAISGSASRTYYADTVKGRFTISRDNAKNTVYLQMNSLKQEDTAVYYCNARGGGTASCYYYWGPGTQVTVSS | high polyreactivity
31 | QFHLVESGGGLVQAGGSLRLSCAASGRIFYPYAMGWYRQAPGKEREFVAAITRRTASTYYADSVKGRFTITRDNAKNTVYLQMNSLKPEDTAVYYCAADSYLKRPYYAGYYYWGQGTQVTVSS | high polyreactivity
32 | QFHLVESGGGLVQAGGSLRLSCAASGYTFGKYAKGWYRHAPGKDRELVAGISSRGGSTYYADSVKWRFTISRDNAKNTVYLQMISLKPEYTAVYYCAAVAYTGGPRKLSFNYWGQGTQVTLSS | high polyreactivity
33 | QFQLEESGGGLVQAGGSLRLSCDASGSTFSYALGWYRQAPGKERELVAAITIGGRTSYADSVKGRFTISRDNAKNTVYLQMNSLKPEDTAVYYCAAEGYYPVYYYVYYGYDYWGQGTQVTVSS | low polyreactivity
34 | QFQLLESWGGLVQAGGSLLFSCAASGSTFGYYAMGWYRKAPGKERELVAAISKSGGTTSYADSVKGRFTISRDNAKNTVYLQMISLKPEDTAVYYCSARSFRRGGLRGYDSWGQGTQVTVSS | high polyreactivity
35 | QFQLVDSGGGLVQAGGSLRLSCAASGRNYRLYAMGWSRQAPRKERELVAAITRGGRTNYAYSVKGRFTISRDNAMNTVYLQMNSLKPEDTAVYYCAARFVERDTDYYYWGQGTQVTVSS | low polyreactivity
36 | QFQLVDSGGGLVQAGGSLRLSCAASGRTFFFYAMGWYRQAPGKERELVASITWSGGTRTYYADSVKGRFTISRDNAKNTVYLQMNSLKREDTAVYYCADTYSSYWFNRYGGKYYYWGQGTQVTVSS | high polyreactivity
37 | QFQLVDSGGGLVQPGGSLRLRCAASGLTFQQYAMGWYRQAPGKERELVAAITSDGASTNYADSVKGRFTISRDNAKNTVYLQMNSLKPEDTAVYYCAARRRSRQYRYDYWGQGTQVTVSS | high polyreactivity
38 | QFQLVESAGGLLQAGGSLRIICAASGSTFGYNAMGWYRQAPGKERELVAAITGGGTTNYADSVKGRFTISRDNAKNTVYLQMNSLKPEDTAVYYCAASARRFFFPIYGLYYWGQVTQVTVSS | high polyreactivity
39 | QFQLVESGGCLVQAGGSLRLSCAASGSIFLENTMGWYRQARGKEWEVVAPITSSGDSTYADSVKGRFTIARDNAKNTVYLHMNSLKPEDTAVYYCAAYAGSVRPGDLYGYDYWGQGTQVTVSS | low polyreactivity
40 | QFQLVESGGGIVQAGGRLRLSCAASGSTFFGYAMGWFRQAPGKVRELVAAISSGGSTYYADSVKGRFTISRDNAKNTVYVQMNSLKPEDTAVYYCAAYSYPKKYGYWGQGTQVTVSL | high polyreactivity
41 | QFQLVESGGGLDQAGGSLRLSCAASGFIFSWYAMGWYRQAPGKERELVAAINWSGGSTYYADSVKGRFTISRDNAKNTVYLQMNSLKPEDTAVYYCAAVRQSQFEYWGQGTQVTVSS | high polyreactivity
42 | QFQLVESGGGLDQAGGSLRLSCAASGRIFYRNCMGWYSQAPWKDRELVASIRRGGSTNYADSVKGRFTISRDNAKYTVYLQMNSVKPEDTAVYYCAARRFYPYISSGPYYYWGQGTQVTVSS | high polyreactivity
43 | QFQLVESGGGLFQAGGSLRLSCAASGSTFKRYAMGSYRQAPGKERELVAAISASGGSTSYADSVKGRFTISRDKAKNTVYLQMISLKPEDTAVYYCARDRFRSRFDYWGQGTQVTVSS | high polyreactivity

Reference: the nanobody polyreactivity screen of Harvey et al. (2022)
